Key:
[1] = biological target: T1, mouse IL-2 receptor βγc heterodimer (mIL-2Rβγc), soluble (mouse, UniProt P16297 27-240; P34902 23-263, biotin on the C-terminal biotin acceptor peptide); experiment: SPR, equilibrium titration; IL-2Rγ on streptavidin chip, saturating IL-2Rβ in solution
T1 construct: extracellular domain; also called MmIL-2Rβγc; mIL-2Rβνc
T1 sequence 1: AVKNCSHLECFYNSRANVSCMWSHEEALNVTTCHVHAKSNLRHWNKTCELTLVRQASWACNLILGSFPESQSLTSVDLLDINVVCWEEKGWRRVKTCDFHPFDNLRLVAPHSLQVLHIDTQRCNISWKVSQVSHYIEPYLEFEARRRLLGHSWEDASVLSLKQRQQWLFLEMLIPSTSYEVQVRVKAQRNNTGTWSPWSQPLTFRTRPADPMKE
T1 sequence 2: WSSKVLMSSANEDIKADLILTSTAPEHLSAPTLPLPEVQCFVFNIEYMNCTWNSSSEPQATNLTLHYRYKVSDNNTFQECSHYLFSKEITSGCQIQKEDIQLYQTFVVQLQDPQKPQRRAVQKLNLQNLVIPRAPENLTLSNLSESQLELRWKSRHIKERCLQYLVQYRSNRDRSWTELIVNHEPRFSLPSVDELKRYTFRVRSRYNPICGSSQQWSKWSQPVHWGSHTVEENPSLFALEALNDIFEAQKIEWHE
Experimental: (§1) Less than 100 response units (RU) of each ligand was immobilized to minimize mass transfer effects. […] Surface regeneration for all interactions was conducted using 15 s exposure to 1 M MgCl2 in 10 mM sodium acetate pH 5.5. SPR experiments were carried out in HBS-P+ buffer (GE Healthcare) supplemented with 0.2% bovine serum albumin (BSA) at 25° C. and all binding studies were performed at a flow rate of […] to prevent analyte rebinding. Data was visualized and processed using the Biacore T100 evaluation software version 2.0 (GE Healthcare). Equilibrium titration curve fitting and equilibrium binding dissociation (KD) value determination was implemented using GraphPad Prism assuming all binding interactions to be first order. Biolayer interferometry: binding data were collected in a Octet RED96 (ForteBio, Menlo Park, Calif.) and processed using the instrument's integrated software using a 1:1 binding model. […] Analyte proteins were diluted from concentrated stocks into binding buffer. After baseline measurement in binding buffer alone, the binding kinetics were monitored by dipping the biosensors in wells containing 100 nM of the designed protein (association) and then dipping the sensors back into baseline wells (dissociation).

[2] = biological target: T2, mouse IL-2Rβγc on murine cells (CTLL-2 T cells, primary CD4+ T cells) (mouse, UniProt P16297 27-539; P34902 23-369); experiment: cell-based or functional assay
T2 sequence (looked up) 1: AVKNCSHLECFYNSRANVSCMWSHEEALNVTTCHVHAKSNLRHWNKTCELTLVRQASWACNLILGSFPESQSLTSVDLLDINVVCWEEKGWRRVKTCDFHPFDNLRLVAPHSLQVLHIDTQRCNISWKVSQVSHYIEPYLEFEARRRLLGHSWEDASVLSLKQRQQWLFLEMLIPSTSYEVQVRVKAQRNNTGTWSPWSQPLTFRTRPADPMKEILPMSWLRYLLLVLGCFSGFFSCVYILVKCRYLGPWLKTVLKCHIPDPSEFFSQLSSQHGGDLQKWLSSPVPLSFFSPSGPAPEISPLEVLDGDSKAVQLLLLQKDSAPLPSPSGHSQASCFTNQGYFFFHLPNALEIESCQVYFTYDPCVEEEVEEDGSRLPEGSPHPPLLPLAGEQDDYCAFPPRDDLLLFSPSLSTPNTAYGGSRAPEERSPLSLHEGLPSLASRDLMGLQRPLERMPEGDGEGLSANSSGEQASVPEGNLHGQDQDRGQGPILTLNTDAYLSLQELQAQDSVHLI
T2 sequence (looked up) 2: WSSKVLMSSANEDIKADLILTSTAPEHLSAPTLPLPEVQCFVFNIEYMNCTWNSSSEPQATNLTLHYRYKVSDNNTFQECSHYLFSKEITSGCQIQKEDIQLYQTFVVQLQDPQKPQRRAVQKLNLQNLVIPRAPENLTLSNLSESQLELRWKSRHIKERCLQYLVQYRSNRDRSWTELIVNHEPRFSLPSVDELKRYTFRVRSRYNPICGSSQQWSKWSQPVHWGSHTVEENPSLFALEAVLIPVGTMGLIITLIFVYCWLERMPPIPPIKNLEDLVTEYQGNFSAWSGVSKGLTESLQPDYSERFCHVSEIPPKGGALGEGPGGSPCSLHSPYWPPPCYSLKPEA

[3] = biological target: T3, mouse IL-2 receptor β subunit (mIL-2Rβ) (mouse, UniProt P16297 27-240, biotin on the C-terminal biotin acceptor peptide); experiment: SPR, equilibrium titration; biotinylated IL-2Rβ on streptavidin chip
T3 construct: extracellular domain; Biotinylated form for SPR; also called MmIL-2Rβ; murine IL-2Rβ
T3 sequence: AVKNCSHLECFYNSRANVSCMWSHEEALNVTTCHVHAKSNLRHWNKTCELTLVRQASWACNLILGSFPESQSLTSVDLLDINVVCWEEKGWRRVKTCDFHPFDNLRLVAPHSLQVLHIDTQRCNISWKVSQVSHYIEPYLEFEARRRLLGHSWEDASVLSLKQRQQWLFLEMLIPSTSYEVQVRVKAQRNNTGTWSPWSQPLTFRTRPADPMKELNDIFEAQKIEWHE
Experimental: as §1

B1: G2_neo2_40_1F_dsn29 (designed binder)
chain: EDYYSNLKVILEELAREMERNGLSDKAEEWRQWKKIVERIRQIRSNNSDLNEAKELLNRLITYIQSQIFEISERIRETDQEKKEESWKKWQLLLEHALLDVLMLLND
notes: E. coli, N-terminal 6xHis tag and thrombin site
B1 was tested, and the Kd [1] was 38.2 nM and the “EC50 (CD25+) pSTAT5, murine T (CTLL-2, CD25+) cells” value (shortened to “EC50 (CD25+) pSTAT5, murine T”) [2] was 0.48 nM.

B2: G2_neo2_40_1F_seq26 (designed binder)
chain: TKKKYQLLIEHALLDALMILNLWSESNEKLNRIITTMQSWIFTGTYDPDKAEELEKLAKEIEDEARERGIDTEDYMSNLRVILKELS
In the case of B2, the Kd [1] is reported as 27.8 nM and the “EC50 (CD25+) pSTAT5, murine T” value [2] is reported as 1.06 nM.

B3: G2_neo2_40_1F_seq12 (designed binder)
chain: TEKKLQLLVEHALLDALMILNLWSESNEKLNRIITTMQSWIFTGRIDPDKAEELAKLVEELREEARERGIDTEDYVSNLKVILKELS
With B3 the Kd [1] was 39.1 nM and the “EC50 (CD25+) pSTAT5, murine T” value [2] was 1.74 nM.

B4: G2_neo2_40_1F_dsn30 (designed binder)
chain: PEKKRQLLLEHILLDALMLLNLLETNPQNTESKFEDYISNAEVIAEELAKLMESLGLSDEAEKFKKIKQWLREVWRIWSSTNWSTLEDKARELLNRIITTIQSQIFY
notes: as for B1
For B4, the Kd [1] was 925 nM and the “EC50 (CD25+) pSTAT5, murine T” value [2] was 7.61 nM.

B5: G2_neo2_40_1F_dsn40 (designed binder)
chain: PEKKRQLLAEHALLDALMILNIIRTNSDNTESKLEDYISNLKVILEEIARLMESLGLSDEAEKAKEAMRLADKAGSTASEEEKKEAMNRVITWAQSWIFN
notes: as for B1
B5 was tested, and the Kd [1] was 69.2 nM and the “EC50 (CD25+) pSTAT5, murine T” value [2] was 0.5 nM.

B6: G1_neo2_40_1F_H1 (designed binder)
chain: STKKTQLLIEHALLDALDMSRNLPEPNEKLSRIITTMQSWIFTGKIDGDGAQQLAKEVEELEQEHEKRGEDVEDEASNLKVILLELA
For B6, the Kd [3] was 6.8 µM, the Kd [1] was 2650 nM and the “EC50 (CD25+) pSTAT5, murine T” value [2] was 37.4 nM.

B7: G1_neo2_40_1F_H4 (designed binder)
chain: STKKTQLLLEHALLDALHMSRELPEPNEKLNRIITDMQSWIFTGKIDGDGAQDLAKEVEELEQEHEKRGGDVEDYASNLKVILLELA
For B7, the Kd [3] was 10.1 µM, the Kd [1] was 392 nM and the “EC50 (CD25+) pSTAT5, murine T” value [2] was 0.93 nM.

B8: G1_neo2_40_1F_H3 (designed binder)
chain: STKKTQLLIEHALLDALNMRKKLPEPNEKLSRIITDMQSWIFTGKIDGDGAQQLAKEVEELEQEHEKRGGDVEDYASNLKVILLELA
With B8 the binding result [3] was “no binding”, the Kd [1] was 3830 nM and the “EC50 (CD25+) pSTAT5, murine T” value [2] was 35.2 nM.

B9: G1_neo2_40_1F_H2 (designed binder)
chain: STKKTQLLLEHALLDALHMRRNLPEPNEKLSRIITTMQSWIFTGKIDGDGAQELAKEVEELEQEHEKRGRDVEDDASNLKVILLELA
For B9, the Kd [3] was 68.3 µM, the Kd [1] was 964 nM and the “EC50 (CD25+) pSTAT5, murine T” value [2] was 9.38 nM.

B10: G1_neo2_40_1F_H5 (designed binder)
chain: STKKTQLLIEHALLDALHMSRKLPEPNEKLSRIITTMQSWIFTGKIDGDGAQHLAKEVEELEQEHEKRGGEVEDEASNLKVILLELA
B10 was tested, and the Kd [3] was 45.3 µM, the Kd [1] was 5120 nM and the “EC50 (CD25+) pSTAT5, murine T” value [2] was 84.7 nM.

B11: G2_neo2_40_1F_seq27 (designed binder)
chain: TKKKAQLLAEHALLDALMLLNLSSESNERLNRIITWLQSIIFTGTYDPDMVKEAVKLADEIEDEMRKRGIDTEDYVSNLRVILQELA
With B11 the Kd [1] was 13.6 nM and the “EC50 (CD25+) pSTAT5, murine T” value [2] was 0.24 nM.

B12: G1_neo2_40_1F_M3 (designed binder)
chain: STEKTQHAAEDALRDALMLRNLLNEPNEKLARIITTMQSWQFTEKIDGDGAQELAKEVEELQQEHEVRGIDVEDYASNLKVILLQLA
With B12 the Kd [3] was 0.402 µM, the Kd [1] was 64.8 nM and the “EC50 (CD25+) pSTAT5, murine T” value [2] was 80 pM.

B13: G1_neo2_40_1F_M1 (designed binder)
chain: STEKTQLAAEHALRDALMLKHLLNEPNEKLARIITTMQSWQFTGKIDGDGAQELAKEVEELQQEHEVRGIDVEDYASNLKVILLHLA
In the case of B13, the Kd [3] is reported as 0.214 µM, the Kd [1] is reported as 4.3 nM and the “EC50 (CD25+) pSTAT5, murine T” value [2] is reported as 7 pM.

B14: G1_neo2_40_1F_M2 (designed binder)
chain: STKNTQLAAEDALLDALMLRNLLNEPNEKLARIITTMQSWQFTEKIDGDGAQELAKEVEELQQEHEERGIDVEDYASNLKVILLQLA
For B14, the Kd [3] was 2.6 µM, the Kd [1] was 886 nM and the “EC50 (CD25+) pSTAT5, murine T” value [2] was 3.11 nM.

B15: G2_neo2_40_1F_seq16 (designed binder)
chain: TKKKIQLLVEHALLDALMILNLSSKSNEKLNRIITTMQSWIFNGTIDPDRARELAKLVEEIRDEMEKNGIDTEDYVSNLKVILEELA
With B15 the Kd [1] was 71.5 nM and the “EC50 (CD25+) pSTAT5, murine T” value [2] was 2.2 nM.

B16: G2_neo2_40_1F_seq04 (designed binder)
chain: TTKKIQLLVEHALLDALMILNLSSESNEKLNRIITTLQSWIFRGEIDPDRARELAKLLEEIREEMRKRGIDTEDYVSNMIVIIRELA
B16 was tested, and the Kd [1] was 80 nM and the “EC50 (CD25+) pSTAT5, murine T” value [2] was 1.95 nM.

From patent US20200339648A1 (University of Washington, published 2020)
